In US6869925 (Amgen, dated 2005):
pKd: −log10 of the molar value.

What was measured:
[1] = target: SLPI binding sites on U937 cells (human monocyte cell line; intact cells, PMA-induced cells or plasma membranes) (human); test: 125I-SLPI saturation binding, intact U937 cells, *SLPI at 40 pM
[2] = target: SLPI binding sites on HuT78 cells (human T cell line) (human); test: 125I-SLPI saturation binding, intact HuT78 cells, *SLPI at 80 pM
[3] = target: SLPI binding sites on U937 cells (human monocyte cell line; intact cells, PMA-induced cells or plasma membranes) (human); test: 125I-SLPI saturation binding, intact U937 cells, *SLPI at 1280 pM
[4] = target: SLPI binding sites on U937 cells (human monocyte cell line; intact cells, PMA-induced cells or plasma membranes) (human); test: 125I-SLPI saturation binding, intact U937 cells, *SLPI at 2560 pM
[5] = target: SLPI binding sites on U937 cells (human monocyte cell line; intact cells, PMA-induced cells or plasma membranes) (human); test: competition with 125I-SLPI, intact U937 cells, competitor at 0 nM
[6] = target: SLPI binding sites on HuT78 cells (human T cell line) (human); test: 125I-SLPI saturation binding, intact HuT78 cells, *SLPI at 1280 pM
[7] = target: SLPI binding sites on HuT78 cells (human T cell line) (human); test: 125I-SLPI saturation binding, intact HuT78 cells, *SLPI at 5120 pM
[8] = target: SLPI binding sites on U937 cells (human monocyte cell line; intact cells, PMA-induced cells or plasma membranes) (human); test: 125I-SLPI saturation binding, U937 cells plus PMA, *SLPI at 320 pM
[9] = target: SLPI binding sites on HuT78 cells (human T cell line) (human); test: competition with 125I-SLPI, intact HuT78 cells, cold SLPI at 26 nM
[10] = target: SLPI binding sites on U937 cells (human monocyte cell line; intact cells, PMA-induced cells or plasma membranes) (human); test: competition with 125I-SLPI, intact U937 cells, cold SLPI at 270 nM
[11] = target: SLPI binding sites on U937 cells (human monocyte cell line; intact cells, PMA-induced cells or plasma membranes) (human); test: competition with 125I-SLPI, intact U937 cells, cold SLPI at 8.2 nM
[12] = target: SLPI binding sites on HuT78 cells (human T cell line) (human); test: competition with 125I-SLPI, intact HuT78 cells, competitor at 0 nM
[13] = target: SLPI binding sites on U937 cells (human monocyte cell line; intact cells, PMA-induced cells or plasma membranes) (human); test: 125I-SLPI saturation binding, U937 cells minus PMA, *SLPI at 320 pM
[14] = target: SLPI binding sites on HuT78 cells (human T cell line) (human); test: competition with 125I-SLPI, intact HuT78 cells, cold SLPI at 2.6 nM
[15] = target: SLPI binding sites on HuT78 cells (human T cell line) (human); test: Scatchard plot of 125I-SLPI saturation binding, intact HuT78 cells
[16] = target: SLPI binding sites on U937 cells (human monocyte cell line; intact cells, PMA-induced cells or plasma membranes) (human); test: 125I-SLPI saturation binding, U937 cells minus PMA, *SLPI at 1280 pM
[17] = target: SLPI binding sites on U937 cells (human monocyte cell line; intact cells, PMA-induced cells or plasma membranes) (human); test: 125I-SLPI saturation binding, U937 cells minus PMA, *SLPI at 5120 pM
[18] = target: SLPI binding sites on U937 cells (human monocyte cell line; intact cells, PMA-induced cells or plasma membranes) (human); test: 125I-SLPI saturation binding, U937 cells plus PMA, *SLPI at 5,120 pM
[19] = target: SLPI binding sites on HuT78 cells (human T cell line) (human); test: competition with 125I-SLPI, intact HuT78 cells, cold SLPI at 0.25 nM
[20] = target: SLPI binding sites on U937 cells (human monocyte cell line; intact cells, PMA-induced cells or plasma membranes) (human); test: competition with 125I-SLPI, intact U937 cells, cold SLPI at 0.078 nM
[21] = target: SLPI binding sites on U937 cells (human monocyte cell line; intact cells, PMA-induced cells or plasma membranes) (human); test: competition with 125I-SLPI, intact U937 cells, competitor at 0.80 nM
[22] = target: SLPI binding sites on U937 cells (human monocyte cell line; intact cells, PMA-induced cells or plasma membranes) (human); test: competition with 125I-SLPI, intact U937 cells, competitor at 2750 nM
[23] = target: SLPI binding sites on HuT78 cells (human T cell line) (human); test: competition with 125I-SLPI, intact HuT78 cells, cold SLPI at 0.024 nM
[24] = target: SLPI binding sites on HuT78 cells (human T cell line) (human); test: competition with 125I-SLPI, intact HuT78 cells, cold SLPI at 0.078 nM
[25] = target: SLPI binding sites on U937 cells (human monocyte cell line; intact cells, PMA-induced cells or plasma membranes) (human); test: competition with 125I-SLPI, U937 plasma membranes, Kd by Cheng-Prusoff

Chain of serine leukocyte protease inhibitor (SLPI) (P03973 26-132): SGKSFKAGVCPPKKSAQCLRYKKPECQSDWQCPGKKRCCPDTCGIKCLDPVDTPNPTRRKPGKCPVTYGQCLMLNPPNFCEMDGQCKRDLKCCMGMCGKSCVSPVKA

- bound *SLPI (pM) [1]: 9.5 pM
- bound per free [1]: 0.311
- sites bound per cell (sites per cell) [1]: 572
- specific cpm [1]: 380 cpm
- bound pM [2]: 0.75 pM
- bound per free [2]: 0.0095
- sites bound per cell (sites per cell) [2]: 45
- specific cpm [2]: 30 cpm
- bound *SLPI (pM) [3]: 217 pM
- bound per free [3]: 0.204
- sites bound per cell (sites per cell) [3]: 13100
- specific cpm [3]: 8650 cpm
- bound *SLPI (pM) [4]: 339 pM
- bound per free [4]: 0.153
- sites bound per cell (sites per cell) [4]: 20400
- specific cpm [4]: 13500 cpm
- % *SLPI BOUND [5]: 109%
- bound pM [6]: 7.6 pM
- bound per free [6]: 0.0059
- sites bound per cell (sites per cell) [6]: 458
- specific cpm [6]: 303 cpm
- bound pM [7]: 13.5 pM
- bound per free [7]: 0.0026
- sites bound per cell (sites per cell) [7]: 813
- specific cpm [7]: 538 cpm
- bound pM [8]: 65 pM
- bound per free [8]: 0.255
- sites bound per cell (sites per cell) [8]: 3920
- specific cpm [8]: 698 cpm
- % *SLPI BOUND [9]: 37%
- % *SLPI BOUND [10]: 0%
- % *SLPI BOUND [11]: 24%
- % *SLPI BOUND [12]: 100%
- bound *SLPI (pM) [13]: 101 pM
- bound per free [13]: 0.461
- sites bound per cell (sites per cell) [13]: 6080
- specific cpm [13]: 1080 cpm
- % *SLPI BOUND [14]: 56%
- pKd [15]: 8.70
- bound *SLPI (pM) [16]: 396 pM
- bound per free [16]: 0.448
- sites bound per cell (sites per cell) [16]: 23900
- specific cpm [16]: 4230 cpm
- bound *SLPI (pM) [17]: 748 pM
- bound per free [17]: 0.171
- sites bound per cell (sites per cell) [17]: 45100
- specific cpm [17]: 7990 cpm
- bound pM [18]: 135 pM
- bound per free [18]: 0.027
- sites bound per cell (sites per cell) [18]: 8130
- specific cpm [18]: 1440 cpm
- % *SLPI BOUND [19]: 69%
- % *SLPI BOUND [20]: 101%
- % *SLPI BOUND [21]: 78%
- % *SLPI BOUND [22]: 4%
- % *SLPI BOUND [23]: 88%
- % *SLPI BOUND [24]: 90%
- pKd [25]: 8.70
Substance: serine leukocyte protease inhibitor (SLPI) (from UniProt P03973 26-132)
